In US20140194320, “METHOD FOR PREPARING NUCLEIC ACID APTAMER” (TAGCYX BITOECNOLOGIES, published 2014):

Tests used:
NF-κB p50 (rhNF-κB) [1] = target: T1, NF-κB p50 (rhNF-κB) (Homo sapiens, UniProt P19838 P19838:1-433); assay: SPR; PBS, 0.05% Nonidet P-40, 2.5 mM DTT, 25 C; immobilized by hybridization to biotinylated probe; settings: tags: Promega; chain copies: 2 (inferred); hairpin stem with non-Watson-Crick G-A and G-T pairs
Experimental: (§1) The binding ability of each NF-κB p50-binding DNA aptamer clone for NF-κB p50 was determined by the surface plasmon resonance (SPR) method using BIACORE 3000 (GE Healthcare Japan Corp.). The assay in the SPR method was conducted with a temperature set to 25° C. using buffer A as a running buffer. Specifically, DNA probes (21 mer) (SEQ ID NO: 30) each having a nucleotide sequence complementary to the 3′-terminal region of each clone and having a biotinylated base at the 5′ end were immobilized onto a streptavidin-coated sensor chip (SA chip). Then, 60 μL (corresponding to 12 minutes) of a solution of each single-stranded DNA clone (95 mer) diluted to 50 nM with PBS was injected thereto at a flow rate of 5 μL/min to immobilize the clone onto the SA chip through hybridization with the probe.

NF-κB p50 (rhNF-κB) [2] = target: T1, NF-κB p50 (rhNF-κB); assay: SPR; PBS, 0.05% Nonidet P-40, 2.5 mM DTT, 25 C; Example 2 text gives range 2.1 to 3.5 pM; settings: tags: Promega; chain copies: 2 (inferred); hairpin stem with non-Watson-Crick pairs; 95 mer
Experimental: as §1

NF-κB p50 (rhNF-κB) [3] = target: T1, NF-κB p50 (rhNF-κB); assay: SPR; PBS, 0.05% Nonidet P-40, 2.5 mM DTT, 25 C; settings: tags: Promega, chain copies: 2 (inferred)
Experimental: as §1
(§2) Single-stranded DNA variants (68 mer, SEQ ID NOs: 31, 32, and 33; free from a sequence comprising the 5′-terminal primer sequence region) of each NF-κB p50-binding DNA aptamer clone were analyzed for their binding ability by the same SPR method as in Example 2. […] These single-stranded DNA variants used in binding analysis were prepared by chemical synthesis and gel purification. In the diagram, Cont-68 (SEQ ID NO: 34) corresponds to a single-stranded DNA in which the strands of a double-stranded DNA comprising a known NF-κB p50-binding consensus sequence were linked via adenine tetraloop (AAAA). For SPR analysis, each of these single-stranded DNAs was immobilized onto the SA chip through hybridization with probes by the injection of 20 μL (corresponding to 1 minute) of a solution of each DNA fragment (68 mer) diluted to 250 nM with PBS at a flow rate of 20 μL/min.

NF-κB p50 (rhNF-κB) [4] = target: T1, NF-κB p50 (rhNF-κB); assay: SPR; PBS, 0.05% Nonidet P-40, 2.5 mM DTT, 25 C; natural consensus hairpin control; settings: tags: Promega, chain copies: 2 (inferred), known NF-κB consensus duplex strands linked via AAAA tetraloop
Experimental: as §1
as §2, with “For SPR analysis, each of these single-stranded DNAs was immobilized onto the SA chip through hybridization with probes by the injection of 20 μL (corresponding to 1 minute) of a solution of each DNA fragment (68 mer) diluted to 250 nM with PBS at a flow rate of 20 μL/min.” left out

NF-κB p50 (rhNF-κB) [5] = target: T1, NF-κB p50 (rhNF-κB); assay: SPR; PBS, 0.05% Nonidet P-40, 2.5 mM DTT, 25 C; Example 3 text gives range 5.7 to 8.7; settings: tags: Promega; chain copies: 2 (inferred); hairpin stem with two G-T and three G-A pairs
Experimental: as §1
as §2, with “For SPR analysis, each of these single-stranded DNAs was immobilized onto the SA chip through hybridization with probes by the injection of 20 μL (corresponding to 1 minute) of a solution of each DNA fragment (68 mer) diluted to 250 nM with PBS at a flow rate of 20 μL/min.” left out

NF-κB p50 (rhNF-κB) [6] = target: T1, NF-κB p50 (rhNF-κB); assay: SPR; PBS, 0.05% Nonidet P-40, 2.5 mM DTT, 25 C; dissociation rate 10 times larger than 5R01-68; settings: tags: Promega; chain copies: 2 (inferred); hairpin

T1 sequence (P19838 1-433, one chain of several): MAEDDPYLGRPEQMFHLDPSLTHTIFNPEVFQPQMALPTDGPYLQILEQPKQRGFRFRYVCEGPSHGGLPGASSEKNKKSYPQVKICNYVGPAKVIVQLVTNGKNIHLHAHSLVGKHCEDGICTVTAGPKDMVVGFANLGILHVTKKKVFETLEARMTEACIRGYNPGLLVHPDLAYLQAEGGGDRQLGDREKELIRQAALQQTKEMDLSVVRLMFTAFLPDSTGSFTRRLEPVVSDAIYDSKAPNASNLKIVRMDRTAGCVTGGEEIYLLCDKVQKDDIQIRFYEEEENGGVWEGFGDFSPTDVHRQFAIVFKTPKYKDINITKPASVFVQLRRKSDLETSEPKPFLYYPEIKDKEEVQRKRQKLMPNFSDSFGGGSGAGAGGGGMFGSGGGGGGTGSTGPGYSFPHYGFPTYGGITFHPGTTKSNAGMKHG

B1: 5R01 (ssDNA)
DNA: GTAGTCACTAATCCGTTCGAGTCATGCCGGGGAATCACTGTAGGGACATTACGCAGGGGATTCACTAGGAGTGGACTGATACGATCGATTGACAG
Kd (NF-κB p50 (rhNF-κB) [1]): 3.5 pM

B2: 5R14 (ssDNA)
DNA: GTAGTCACTAATCCGTTCGAGTCATGCCACGGGGTTTCACTGTTTCGTAGATTGCATAAGGGGAAACACTGTGGACTGATACGATCGATTGACAG
Kd (NF-κB p50 (rhNF-κB) [2]): 6.6 pM

B3: 5R14-68 (ssDNA)
DNA: CACGGGGTTTCACTGTTTCGTAGATTGCATAAGGGGAAACACTGTGGACTGATACGATCGATTGACAG
Kd (NF-κB p50 (rhNF-κB) [3]; hairpin): 8.7 pM

B4: Cont-68 (ssDNA)
DNA: CCTTGAAGGGATTTCCCTCCAAAAGGAGGGAAATCCCTTCAAGGTGGACTGATACGATCGATTGACAG
Kd (NF-κB p50 (rhNF-κB) [4]): 3500 pM

B5: 5R05 (ssDNA)
DNA: GTAGTCACTAATCCGTTCGAGTCATGCTGTAACGTAGGGGTTTCACCAACACTGCGGGAAACACTGAAGCGTGGACTGATACGATCGATTGACAG
Kd (NF-κB p50 (rhNF-κB) [3]; hairpin stem with non-Watson-Crick pairs, 95 mer): 2.1 pM

B6: 5R01-68 (ssDNA)
DNA: CGGGGAATCACTGTAGGGACATTACGCAGGGGATTCACTAGGAGTGGACTGATACGATCGATTGACAG
Kd (NF-κB p50 (rhNF-κB) [5]): 5.4 pM

B7: 5R01mut-68 (ssDNA)
DNA: CGGGGAATCCCCGTAGGGACATTACGCCGGGGATTCCCCAGGAGTGGACTGATACGATCGATTGACAG
Kd (NF-κB p50 (rhNF-κB) [6]): 140 pM

B8: 5R05-68 (ssDNA)
DNA: TGTAACGTAGGGGTTTCACCAACACTGCGGGAAACACTGAAGCGTGGACTGATACGATCGATTGACAG
Kd (NF-κB p50 (rhNF-κB) [3]; hairpin): 7.2 pM
